Assay: label from the status in PepcDB records

For “MSKKINELLRYCEENYIERGSLELALRCAVSICKANPDAPQAYAHVAAYRILLTAANYRTVTGEPDWYAVLGINKRGSSKSVVNAIDRRCEEIIEVLDGETGVSKAVSRVYDLVRLGVSELMDEDRRRAYDLRSGFSIIN”, the protein production was “failed”.

For “MATIGLDRLYYSKITEDANGEETYAQPSVLAKAITAELSVELVEAILYADDGAAEVVKDFNSGTLTLGVDDIGPMVAADLTGASTDDNGVLISASENVGTPVAVGFRAQRANGTYRYFWLYRVKFGLPATNLQTKADSITFSTPTIEGTVMRRNKLDGLGKHPWKAEVTEGDPGVSSTTITGWFTEVYEPVYTPEP”, the protein production was “failed”.

With “MKELNIALLGLGTVGSGVVKIIEENRQQIKDTINKDIVIKHILVRDKSKKRPLNISQYHLTEDINDILNDNSIDIVVEVMGGIEPTVDWLRTALKNKKHVITANKDLLAIHLKLLEDLAEENGVALKFEASVAGGIPIVNAINNGLNANNISKFMGIFNGTSNFILSKMTHEQTTFKDALEEAQRLGFAEADPTDDVEGVDAARKVVITSYLSFNQVIKLNDVKSVGISDITLADINAANSLNYKIKLIGKGTYENGYVNASVEPTLIHKNHQLAAVENEYNAIYVIGDAVGDTMFYGKGAGSLATGSAVVSDLLNVALFFESNLHTLPPHFELKTEETKEMMDGAEPVVIQEKSNYYIVISNNNKSLEKVEYDIKKKLPFHKSLQLVERDQDTYAIIVTGIETSPEKVLNQSGFNIKKVYPVEGV” the protein production was “failed”.

For “MVEGTESATGAASAGDLVEGRHAAPKARAGKGGLARSSLLMALGTVVSRATGLIRQVLQAAALGTGLLASTYNTANTVPTSLYTLLIGGALNAVLVPQLVRARATQPDGGRAYEQRLVTLVLCVLGVGTALAVWAAPGIVALYMRDTPDSHEAFELTVVFARFLLPQIFFYGVFSILGQVLNAREKFGAMMWTPVLNNVVLIGMFGAYLSLMTVPDRVEDITGQQVRFLGVCTTAGIALQALALIPFVRAAGFRFRPRFDWRGTGLGKSVHAAKWTLLLVLANQVALTVVTNYANAVDQELPKAGAGYTAYTYAQTIWMLPQSIVTVSLVTALLPRMSRAVAEDRLPDLRADLSRVLRISGVVIVPAGFLFLALGPGIATLLFAHGAADAASAQPLGHMLQAFGLGLIPFSAQYLLLRGFYAFEDTRTPFFMAVWIAVVNIALATACHLLLPARWAVTGMAAGYTLSYLAGLLLTARLLRKRLGGRRLDDGELRRTYGKLLCASAVAAGAGWAAARATATTTPTALALAAGAVTMALVYVALARLLKVSELRLPGRG”, the protein production was “failed”.

For “KKFEQVIYRGITEGKSSNEIREELVHQAGMSSDKAAFIARDQTGTILGQMNSERQKRAGFQAFRWSDSGDERVRDSHRERNGKIYFYADNPLLPGEEYNCRCVAE”, the protein production was “failed”.

For “MNSTAIVLLNWRSAKDTVKCVESLIAAEIRQCDIIIVDNDSQDESINVIKEHFTDVRVIESGKNGGFAYGCNVGIRAALSSGYNYVWLLNNDTIVDKTTLPNMIEEIKRNKKAIVGSIIRDIEFPWSVQAVGGGTINFLTGTGRHIKTFDDVDKLDYLLGASILVSREALESIGLLNEDFFMYWEDTEFCIRARRKGYFLKVAKQSNVYHKEGGSVNKESYAQTRMIFRSMRKFFLKESPFPLLPIAIRQLGKTFVSLLRREFRRIPYIWL”, the protein production was “failed”.

In the case of “MRPMASELTTFVLIFGTLLFVFGLFSRKIEGTVVTIQMIFLAAGILLSPIGLNLISLSPRSGLVLGVIKVALVLTFFSDASLIGLHSLFLKERLSVRLLFLGLSLTICLGTVFAALLFADITFIDAILLGIILAPTDASLAQKVVEERQVPTLIRNGLIIESGLNDGAVMPLFIFVVALEAVEKLNRPLGTFLAIALEQIGFGIFVGIIIGLVGGWLFSRAFKAGSMSEVYYRTEFVALALISWLVADGVGGNGFIAAFIAGLATRIEDRQVTEEEVILLPRAEGNVLNLAVLFILGVMSAEYLPLVDLKIFAYAVLSLTVVRMVPVTISLIGSHLNIKTGLFMGWFGPRGLASIVLMLITVERIEGIRVSGTIGLAVITTVIISVFAHGITAGPVSNWYARIIATLPPDAPEKESVEELTALQGIETTENIHKEPY”, the protein production is reported as “failed”.

In the case of “MLRLDTRFLPGFPEALSRHGPLLEEARRRLLAKRGEPGSMLGWMDLPEDTETLREVRRYREANPWVEDFVLIGIGGSALGPKALEAAFNESGVRFHYLDHVEPEPILRLLRTLDPRKTLVNAVSKSGSTAETLAGLAVFLKWLKAHLGEDWRRHLVVTTDPKEGPLRAFAEREGLKAFAIPKEVGGRFSALSPVGLLPLAFAGADLDALLMGARKANETALAPLEESLPLKTALLLHLHRHLPVHVFMVYSERLSHLPSWFVQLHDESLGKVDRQGQRVGTTAVPALGPKDQHAQVQLFREGPLDKLLALVIPEAPLEDVEIPEVEGLEAASYLFGKTLFQLLKAEAEATYEALAEAGQRVYALFLPEVSPYAVGWLMQHLMWQTAFLGELWEVNAFDQPGVELGKVLTRKRLAG”, the protein production is reported as “not failed”.

With “MLGLKTSIIGRRVIYFQEITSTNEFAKTSYLEEGTVIVADKQTMGHGRLNRKWESPEGGLWLSIVLSPKVPQKDLPKIVFLGAVGVVETLKEFSIDGRIKWPNDVLVNYKKIAGVLVEGKGDKIVLGIGLNVNNKVPNGATSMKLELGSEVPLLSVFRSLITNLDRLYLNFLKNPMDILNLVRDNMILGVRVKILGDGSFEGIAEDIDDFGRLIIRLDSGEVKKVIYGDVSLRFL” the protein production was “not failed”.

For “MSDLGDFADHGRDDDERGGDDDPAPADDDFDRPTLEATGSDDGLGALAVSEGLRIHEDGQETALKAYVTAGNRAAVRLGTYLVAPYPGGETLFCKITGLEYVQAFESDDATEIHARRAMRSDGVDEADYKFLAELDPVAVLSDEGDDITRRMPDRVPKPETVVRAADDAAEIKAGLKIPADGVFLGHLSVGGEKVRTAADPPTIDYRVKDGYEAGDPLVFRHTLIAGGTGSGKTHAAKNVLRQYLHEDRRYPVDSGGPERRMAVVQFDPQDEYAQMHDDNPDADASDRRQWETQGLAYGGHDDTVAFVPTVGSASYAADHHAAEQVAFTVPFSMVRDNPWLVASSGLNDNQYGALHLLLDRFFGQYGESGTYREFCAFLDDPALKEELDESGRVHEATYEAVLRRVNGMPNGLFDQDARSITALVEDREFVQPGRLSVVPTYHISNSRAAETVVLAVSSLLVDQKLSNDPRYDAIKRTPLLVGMDEAHNFLSDADSVQARKVVGKFTEAAKQGRKERLGLFLITQDPQDIAGPVFKQVNTTVVLNLGDEDAIQAVNIPATLQSKVPYMNTGQMVVYSPDNSEPVEVQGLATCVTRHGRD”, the protein production was “failed”.

In the case of “MAPTIRLPFRRTLALLASATILAQTGMSGIAFAQTSPETAVPGVAAPVPAAPTPPASTPQQTPPVQTVVPTNGPASVADLAEGLLDAVVNISTSQNVKDDEGVGPAPRAPDGSPFQEFFNDFFNKKQGNKGPNHNVSSLGSGFVIDPAGYIVTNNHVIEGADDIEVNFANGSKLKAKLIGTDTKTDLSVLKVEPKTPLKSVKFGDSSEMRIGDWVMAIGNPFGFGGSVTVGIISGRGRNINAGPYDNFIQTDAAINKGNSGGPLFNMKGEVIGINTAIISPSGGSIGIGFSVPSELASGVVEQLRQYGETRRGWLGVRIQPVTDDIADSLGLDTAKGALVAGVIKGGPVDDGSIKAGDVILKFDGKTVNEMRDLPRVVAESTVGKEVDVVVLRDGKEQTVKVKLGRLEDSDQAASGDASPDGSQDGVITPDPDENDDMDQPDTGDQVAPAPGAPAPDQHQQGQVSPDAATPKNVLGLSLSLLSPETRKAFGIAESVDGVVVTEVEPGSASAEKGLKPGDVIVEVAQEFMKSPDAVAAKVKSLKQEGRRNAQLMIASANGDLRFVAVPME”, the protein production is reported as “failed”.

For “MKRNTRLLFVVPAFFAIFAMACACQGGTAGKSFTNSTGSPGEMMLVMDDQYLGSPVGEAIYEAMTEVAPALNQNEPIMAVSRVSEKDFTGFLRYIRNVLQIDINPDIFTKTSLKYGYDQWANGQLVVLINSPATDSLTAYVESNKSAIQNLFIRHELFLFGQLWQKDCSADADQRVQRMFGYHINVPADILSHKEGKDFLWMSNNQMRRRKDFLVYTFPYRGASDLGLDRMVEVRDSVLKANIEGSDAGSYPVTERMLLKHRYVYPGDQKRGEVHGIWRMEGGQMMSGPFVAQAFVDGDRVVVVEGFVYHPNEKKRDLMRQMEAALYSMRPKAEKEFDPSIIRKARWTTLK”, the protein production was “failed”.

In the case of “MEKESQTIFDKNVIEFVTVAAEFCAFLERAESMKRSTFVDTSLKILPLLYLKASMLPKCETIGDEAPETYVTEEIYEILRINLAGLMGDKDDYLDVFVQDMVYSDQPIKKSISEDLADIYQDIKDFIFVFQLGLNETMNDSLAICQENFGMLWGQKLVNTLRALHDVKYNLQDNEEEEENNEEGFYEPSEDDSCCEEGGCHCHDDECHCHEGSCHCHDDEK”, the protein production is reported as “failed”.

In the case of “MSYDVIVRNGLWFDGTGRPPQVRTLGIRDGVVATVSAKPLDETGCPEVIDAGGKWVVPGFIDVHTHYDAEVLLDPGLRESVRHGVTTVLLGMCSLSTVYSDAEDAADLFSRVEAVPRQFVLGALESRKTWSNPAEYVAAIDALPLGPNIASLLGHSDLRASVLGLDRATTRGVVPTDDELETMADRLDAALDAGMLGMSGMDAAIDKLDGDRFRSRALPSTFATWRERRRLIKVLRKRGRILQSAPNVAKAQEALNFFLESSSLFGRRRGVRMSLLVSADAKSSPGAARVIGMGTRLLNKTLDAKVRFQHLPVPFELYSDGIDLPVFEEFGAGTAALHLRDQLERNKLLADPEYRRRFRRSFDRRKLGPTLWHRDFHDATIVECPDESLIGKTFGRIADERGIHPLDAFLDVLVDNGEKNVRWTTIVANHRPKVLDQLANDPAVHMGFSDAGAHLRNMAFYNYPLRLLKRVRDAQLSGRPFLTTERAVYRLTAEVADWFGVDAGTLREGDRADFVVIDPNCLNSDVDAYHEETVPFYGGLSRMVNRNDDAVVATAVNGTVVFGKGEFRDGYGDTVKSGRYLRAGADSRLKTAVLEHHHHHH”, the protein production is reported as “failed”.

In the case of “MAVMARHESYYGNTKPAKLNEEKVTRVRFYLHDTLSGQNPTAVRIAHANLTGGSASPVGFGSLFVIDDPLTVGPEKHSKEIGNGQGMYVSGCKDLSKFTIVMYADLAFTAGKFNGSSISIFSRNPVAEEVGEREIAIVGGRGKFRMARGFVKVKTNKIDMKTGDAVLRYDATVYHY”, the protein production is reported as “failed”.

With “MAAAGAPDGMEEPSMDTEAEAVATEAPARPLNCVEAEAVVGTAAEDSCDARGNLQPAPAQPPGDPAAQASVSNGEDAGGGAGRELVDLKIIWNKTKHDVKVPLDSTGSELKQKIHSITGLPPAMQKVMYKGLVPEDKTLREIKVTSGAKIMVVGSTINDVLAVNTPKDAAQQDAKAEESKKEPLCRQKQHRKVLDKGKPEDVMPSVKGAQERLPTVPLSGMYNKSGGKVRLTFKLEQDQLWIGTKERTEKLPMGSIKNVVSEPIEGHEDYHMMAFQLGPTEASYYWVYWVPTQYVDAIKDTVLGKWQYF” the protein production was “failed”.

In the case of “MTVETFHPKQTTTLETPAKTLEAASADSVNTGNVATGNRIGFVSLGCPKNLVDSERILTQLRIDGYEVTNSYDNADLVIVNTCGFIDAAVEESLDAVREALEENGKVIVTGCLGAKENQIREVHPDVLEITGPHSYEAVLKHVHKYVPKPEHNPFTSLIPQTGVKLTPKHYAYLKISEGCDNRCTFCIIPALRGDLDSRGAGSVLDEAKRLVEAGVQEILVVSQDTSAYGKDKGGRTDFWNGMPVKQDITSLARQLGKMGAWVRLHYIYPYPWVDDLIPLMAEGLILPYLDIPMQHASPRILKMMKRPGRVDRQLEAIQRWREICPDLVIRSTFIVGFPGETEEDFEMLLDFLREARLDRVGCFKYSEVEGAVANTIAELISEEVKEDRYHRFMEVQAEISAERLARFVGRTMDILIDDVDEEGAIGRSFADAPEIDGMVFINGETELEPGMLVRAVITHSDEHDLWAELVDADAEDEVEALEHHHHHH”, the protein production is reported as “not failed”.

With “MKEEAVRVIEEVLKQGRTAMVEYEAKQVLKAYGLPVPEEKLAKTLDEALEYAKEIGYPVVLKLMSPQILHKSDAKVVMLNIKNEEELKKKWEEIHENAKKYRPDAEILGVLVAPMLKPGREVIIGVTEDPQFGHAIMFGLGGIFVEILKDVTFRLVPITEKDARKMIQEIKAYPILAGARGEEPADIDAIVDMLLKVSKLVDDLKDYIKEMDLNPVFVYNKGEGAVIVDSRIILKPKD” the protein production was “not failed”.
